Paper PMC3060787
Read-outs that look alike come from different tables or passages of the source.

How the values were obtained:
Test in all cases: smFRET
Taq MutS(C42A,T469C)-Cy3 [1] = molecular target: T1, Taq MutS(C42A,T469C)-Cy3 (Thermus aquaticus, UniProt Q56215 1-811, C42A;T469C)
T1 sequence: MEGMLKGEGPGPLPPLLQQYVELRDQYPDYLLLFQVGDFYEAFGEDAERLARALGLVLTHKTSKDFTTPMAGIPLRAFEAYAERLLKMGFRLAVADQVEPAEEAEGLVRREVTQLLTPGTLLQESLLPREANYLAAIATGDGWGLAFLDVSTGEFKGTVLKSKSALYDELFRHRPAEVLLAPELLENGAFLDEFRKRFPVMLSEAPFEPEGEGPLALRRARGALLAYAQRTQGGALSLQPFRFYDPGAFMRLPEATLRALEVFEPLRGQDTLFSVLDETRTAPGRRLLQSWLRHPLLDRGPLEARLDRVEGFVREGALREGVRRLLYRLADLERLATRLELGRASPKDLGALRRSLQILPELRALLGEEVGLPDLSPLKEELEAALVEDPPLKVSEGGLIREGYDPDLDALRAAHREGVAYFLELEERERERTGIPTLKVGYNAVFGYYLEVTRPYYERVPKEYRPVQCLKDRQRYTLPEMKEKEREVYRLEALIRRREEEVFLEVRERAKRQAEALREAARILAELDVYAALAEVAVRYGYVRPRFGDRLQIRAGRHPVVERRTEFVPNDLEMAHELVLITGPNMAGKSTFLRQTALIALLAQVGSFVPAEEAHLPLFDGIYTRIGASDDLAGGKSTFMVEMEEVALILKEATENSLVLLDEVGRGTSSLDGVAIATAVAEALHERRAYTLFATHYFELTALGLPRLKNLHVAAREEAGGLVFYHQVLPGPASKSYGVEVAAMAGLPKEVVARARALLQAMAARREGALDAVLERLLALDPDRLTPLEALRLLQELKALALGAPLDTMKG

Taq MutS(C42A,T469C)-Cy3 [2] = molecular target: T1, Taq MutS(C42A,T469C)-Cy3; remark: listed apart in the source
Taq MutS(C42A,T469C)-Cy3 [3] = molecular target: T1, Taq MutS(C42A,T469C)-Cy3; remark: listed apart in the source
Taq MutS(C42A,T469C)-Cy3 [4] = molecular target: T1, Taq MutS(C42A,T469C)-Cy3; remark: listed apart in the source

B1: 74 bp duplex, both ends blocked (dsDNA)
DNA 1: ATTCAGCTGTACCCAATTCACTCTACGACGAGGCGTCGCTAGCGTCGCATCCTGCTGTAAGTTTCATGTCCACC
DNA 2: GGTGGACATGAAACTTACAGCAGGATGCGACGCTAGCGACGCCTCGTCGTAGAGTGAATTGGGTACAGCTGAAT
modifications: amino-C6 dT (Cy5 site)
B1 was tested, and the Kd (Taq MutS(C42A,T469C)-Cy3 [1]) was 128 ± 12 nM.

B2: 100 bp duplex (dsDNA)
DNA 1: GTTACCGATACGATACGAATAGGCATATCTGCACGTTTCTCACGAGGCGCCGCTAGACTGATCTGGAGCTTAATTGCCTGCCGGAGCTAAAGACGTTCCA
DNA 2: TGGAACGTCTTTAGCTCCGGCAGGCAATTAAGCTCCAGATCAGTCTAGCGGCGCCTCGTGAGAAACGTGCAGATATGCCTATTCGTATCGTATCGGTAAC
modifications: amino-C6 dT (Cy5 site)
B2: binds (Taq MutS(C42A,T469C)-Cy3 [2]).

B3: 100 bp +dT mismatch DNA (100/101 nt) (dsDNA)
DNA 1: GTTACCGATACGATACGAATAGGCATATCTGCACGTTTCTCACGAGGCGCCGCTAGACTGATCTGGAGCTTAATTGCCTGCCGGAGCTAAAGACGTTCCA
DNA 2: TGGAACGTCTTTAGCTCCGGCAGGCAATTAAGCTCCAGATCAGTCTAGCGTGCGCCTCGTGAGAAACGTGCAGATATGCCTATTCGTATCGTATCGGTAAC
modifications: amino-C6 dT (Cy5 site)
B3: binds (Taq MutS(C42A,T469C)-Cy3 [2]).

B4: +dT mismatch DNA (74/75 nt), both ends blocked (dsDNA)
DNA 1: ATTCAGCTGTACCCAATTCACTCTACGACGAGGCGTCGCTAGCGTCGCATCCTGCTGTAAGTTTCATGTCCACC
DNA 2: GGTGGACATGAAACTTACAGCAGGATGCGACGCTAGCGTACGCCTCGTCGTAGAGTGAATTGGGTACAGCTGAAT
modifications: amino-C6 dT (Cy5 site, nt 45 from 5' biotin)
For B4, the Kd (Taq MutS(C42A,T469C)-Cy3 [3]) was 16.2 ± 2.1 nM.

B5: +dT mismatch DNA with dT10 ssDNA tail (74/85 nt) (dsDNA)
DNA 1: ATTCAGCTGTACCCAATTCACTCTACGACGAGGCGTCGCTAGCGTCGCATCCTGCTGTAAGTTTCATGTCCACC
DNA 2: TTTTTTTTTTGGTGGACATGAAACTTACAGCAGGATGCGACGCTAGCGTACGCCTCGTCGTAGAGTGAATTGGGTACAGCTGAAT
modifications: amino-C6 dT (Cy5 site)
B5: binds (Taq MutS(C42A,T469C)-Cy3 [4]).
